Biological target: human p75 neurotrophin receptor (p75NTR) expressed in CHO-K1 cells (human) (UniProt P08138)
Test: AP fusion protein on CHO-K1 cells expressing cell-surface human p75NTR, fluorescent AP substrate

human p75 neurotrophin receptor (p75NTR) expressed in CHO-K1 cells (human), sequence (P08138 29-427): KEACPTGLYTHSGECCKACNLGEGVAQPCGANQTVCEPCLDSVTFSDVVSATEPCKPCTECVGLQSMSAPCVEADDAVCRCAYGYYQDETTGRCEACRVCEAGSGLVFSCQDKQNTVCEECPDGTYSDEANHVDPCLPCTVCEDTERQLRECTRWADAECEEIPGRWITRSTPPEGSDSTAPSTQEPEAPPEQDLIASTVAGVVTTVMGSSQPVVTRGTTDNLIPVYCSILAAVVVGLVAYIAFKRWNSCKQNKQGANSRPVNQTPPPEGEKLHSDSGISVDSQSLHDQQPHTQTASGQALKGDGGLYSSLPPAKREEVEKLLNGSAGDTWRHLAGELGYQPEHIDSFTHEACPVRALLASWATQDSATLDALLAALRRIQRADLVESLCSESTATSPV

## NgR-AP
  fold bound against mock-transfected control cells: 5 fold

From patent US20080027001A1, “NOGO RECEPTOR FUNCTIONAL MOTIFS, PEPTIDE MIMETICS, AND MUTATED FUNCTIONAL MOTIFS RELATED THERETO, AND METHODS OF USING THE SAME” (priority 2006, published 2008)
